Reference: patent US20210324063A1

Target: recombinant human VEGF-165 (R&D Systems) (human) (UniProt P15692)
Sequence (P15692 other isoform, or with tags, fused parts or gaps limits assumed): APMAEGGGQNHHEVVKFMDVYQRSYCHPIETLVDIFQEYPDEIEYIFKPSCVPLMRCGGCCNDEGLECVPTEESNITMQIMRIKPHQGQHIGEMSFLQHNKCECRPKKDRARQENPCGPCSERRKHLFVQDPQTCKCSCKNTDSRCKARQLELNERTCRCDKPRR

How did the IC50, inhibition of VEGF-stimulated HuRMVEC proliferation (WST-1, OD450) turn out when Eylea (aflibercept) (Fc fusion) was run?
Its IC50, inhibition of VEGF-stimulated HuRMVEC proliferation (WST-1, OD450) is 0.683 nM.
